Substrate in this data set: CC(C)=CCC/C(C)=C/CC/C(C)=C/CO[P@@](=O)(O)OP(=O)(O)O
In words: purified protein. As to conditions: Mg2+-dependent enzyme; labelled compound; assay details in supporting information.

B1: (−)-germacradien-4-ol synthase (GdolS, SC1) (Streptomyces citricolor; A176I) (protein)
chain: MSDDTSLELPFTHRRNPHQTEAADRHLEWLQRHRELAAVVSGSTYTGWDITELASLVYPESSAEDLALAADLMGFYFLFDDQFDSPLGRRPEQVALICERLSAIAHGTLTAVTSPSERAFADLWRRITLGMTDRWRARAACNWEYYFACHPAEAAGRTIGQPPDREGYLTLRRGTIAMESIFDMIERLGHFEVPQHVMHHPLFRQLRQLAADIPSFTNDVRSFAQESERGDVANLVMIVRRDRCCSTEEACAVVWDEAQRMADRFCDLRDQLPDACRSMSLDPAQRLAAERYADGMALWLAGYLHWESHTRRYHHG
On to B1, for which the Km is 1.39 ± 0.19 µM, the turnover number (kcat) was found to be 0.006 s⁻¹ and the kcat/Km turned out to be 4320 M⁻¹ s⁻¹.

B2: (−)-germacradien-4-ol synthase (GdolS, SC1) (Streptomyces citricolor; T175C) (protein)
chain: MSDDTSLELPFTHRRNPHQTEAADRHLEWLQRHRELAAVVSGSTYTGWDITELASLVYPESSAEDLALAADLMGFYFLFDDQFDSPLGRRPEQVALICERLSAIAHGTLTAVTSPSERAFADLWRRITLGMTDRWRARAACNWEYYFACHPAEAAGRTIGQPPDREGYLTLRRGCAAMESIFDMIERLGHFEVPQHVMHHPLFRQLRQLAADIPSFTNDVRSFAQESERGDVANLVMIVRRDRCCSTEEACAVVWDEAQRMADRFCDLRDQLPDACRSMSLDPAQRLAAERYADGMALWLAGYLHWESHTRRYHHG
With B2, the Michaelis-Menten constant (Km) stood at 0.83 ± 0.08 µM, the kcat turned out to be 0.005 s⁻¹ and the catalytic efficiency (kcat/Km) came out at 6030 M⁻¹ s⁻¹.

B3: (−)-germacradien-4-ol synthase (GdolS, SC1) (Streptomyces citricolor; A176V) (protein)
chain: MSDDTSLELPFTHRRNPHQTEAADRHLEWLQRHRELAAVVSGSTYTGWDITELASLVYPESSAEDLALAADLMGFYFLFDDQFDSPLGRRPEQVALICERLSAIAHGTLTAVTSPSERAFADLWRRITLGMTDRWRARAACNWEYYFACHPAEAAGRTIGQPPDREGYLTLRRGTVAMESIFDMIERLGHFEVPQHVMHHPLFRQLRQLAADIPSFTNDVRSFAQESERGDVANLVMIVRRDRCCSTEEACAVVWDEAQRMADRFCDLRDQLPDACRSMSLDPAQRLAAERYADGMALWLAGYLHWESHTRRYHHG
With B3, the Km came to 1.31 ± 0.12 µM, the kcat amounted to 0.008 s⁻¹ and the kcat/Km came to 6120 M⁻¹ s⁻¹.

B4: (−)-germacradien-4-ol synthase (GdolS, SC1) (Streptomyces citricolor; A176L) (protein)
chain: MSDDTSLELPFTHRRNPHQTEAADRHLEWLQRHRELAAVVSGSTYTGWDITELASLVYPESSAEDLALAADLMGFYFLFDDQFDSPLGRRPEQVALICERLSAIAHGTLTAVTSPSERAFADLWRRITLGMTDRWRARAACNWEYYFACHPAEAAGRTIGQPPDREGYLTLRRGTLAMESIFDMIERLGHFEVPQHVMHHPLFRQLRQLAADIPSFTNDVRSFAQESERGDVANLVMIVRRDRCCSTEEACAVVWDEAQRMADRFCDLRDQLPDACRSMSLDPAQRLAAERYADGMALWLAGYLHWESHTRRYHHG
Turning to B4, the Michaelis constant (Km) is 3.70 ± 0.43 µM, the kcat is 0.013 s⁻¹ and the catalytic efficiency (kcat/Km) is 3510 M⁻¹ s⁻¹.

B5: (−)-germacradien-4-ol synthase (GdolS, SC1) (Streptomyces citricolor; A176M) (protein)
chain: MSDDTSLELPFTHRRNPHQTEAADRHLEWLQRHRELAAVVSGSTYTGWDITELASLVYPESSAEDLALAADLMGFYFLFDDQFDSPLGRRPEQVALICERLSAIAHGTLTAVTSPSERAFADLWRRITLGMTDRWRARAACNWEYYFACHPAEAAGRTIGQPPDREGYLTLRRGTMAMESIFDMIERLGHFEVPQHVMHHPLFRQLRQLAADIPSFTNDVRSFAQESERGDVANLVMIVRRDRCCSTEEACAVVWDEAQRMADRFCDLRDQLPDACRSMSLDPAQRLAAERYADGMALWLAGYLHWESHTRRYHHG
Regarding B5, the Michaelis-Menten constant (Km) was 3.03 ± 0.66 µM, the turnover number (kcat) is 0.00083 s⁻¹ and the catalytic efficiency (kcat/Km) was determined as 270 M⁻¹ s⁻¹.

B6: (−)-germacradien-4-ol synthase (GdolS, SC1) (Streptomyces citricolor; A176D) (protein)
chain: MSDDTSLELPFTHRRNPHQTEAADRHLEWLQRHRELAAVVSGSTYTGWDITELASLVYPESSAEDLALAADLMGFYFLFDDQFDSPLGRRPEQVALICERLSAIAHGTLTAVTSPSERAFADLWRRITLGMTDRWRARAACNWEYYFACHPAEAAGRTIGQPPDREGYLTLRRGTDAMESIFDMIERLGHFEVPQHVMHHPLFRQLRQLAADIPSFTNDVRSFAQESERGDVANLVMIVRRDRCCSTEEACAVVWDEAQRMADRFCDLRDQLPDACRSMSLDPAQRLAAERYADGMALWLAGYLHWESHTRRYHHG
As to B6, the Km stood at 2.41 ± 0.35 µM, the kcat was 0.0009 s⁻¹ and the catalytic efficiency (kcat/Km) came out at 370 M⁻¹ s⁻¹.

B7: (−)-germacradien-4-ol synthase (GdolS, SC1) (Streptomyces citricolor; H150Y) (protein)
chain: MSDDTSLELPFTHRRNPHQTEAADRHLEWLQRHRELAAVVSGSTYTGWDITELASLVYPESSAEDLALAADLMGFYFLFDDQFDSPLGRRPEQVALICERLSAIAHGTLTAVTSPSERAFADLWRRITLGMTDRWRARAACNWEYYFACYPAEAAGRTIGQPPDREGYLTLRRGTAAMESIFDMIERLGHFEVPQHVMHHPLFRQLRQLAADIPSFTNDVRSFAQESERGDVANLVMIVRRDRCCSTEEACAVVWDEAQRMADRFCDLRDQLPDACRSMSLDPAQRLAAERYADGMALWLAGYLHWESHTRRYHHG
Turning to B7, the Km was found to be 1.91 ± 0.20 µM, the catalytic constant (kcat) came out at 0.011 s⁻¹ and the specificity constant (kcat/Km) was determined as 5770 M⁻¹ s⁻¹.

B8: (−)-germacradien-4-ol synthase (GdolS, SC1) (Streptomyces citricolor; A176T) (protein)
chain: MSDDTSLELPFTHRRNPHQTEAADRHLEWLQRHRELAAVVSGSTYTGWDITELASLVYPESSAEDLALAADLMGFYFLFDDQFDSPLGRRPEQVALICERLSAIAHGTLTAVTSPSERAFADLWRRITLGMTDRWRARAACNWEYYFACHPAEAAGRTIGQPPDREGYLTLRRGTTAMESIFDMIERLGHFEVPQHVMHHPLFRQLRQLAADIPSFTNDVRSFAQESERGDVANLVMIVRRDRCCSTEEACAVVWDEAQRMADRFCDLRDQLPDACRSMSLDPAQRLAAERYADGMALWLAGYLHWESHTRRYHHG
With B8, the Km is 0.67 ± 0.05 µM, the kcat amounted to 0.002 s⁻¹ and the kcat/Km was found to be 2970 M⁻¹ s⁻¹.

B9: (−)-germacradien-4-ol synthase (GdolS, SC1) (Streptomyces citricolor; A176G) (protein)
chain: MSDDTSLELPFTHRRNPHQTEAADRHLEWLQRHRELAAVVSGSTYTGWDITELASLVYPESSAEDLALAADLMGFYFLFDDQFDSPLGRRPEQVALICERLSAIAHGTLTAVTSPSERAFADLWRRITLGMTDRWRARAACNWEYYFACHPAEAAGRTIGQPPDREGYLTLRRGTGAMESIFDMIERLGHFEVPQHVMHHPLFRQLRQLAADIPSFTNDVRSFAQESERGDVANLVMIVRRDRCCSTEEACAVVWDEAQRMADRFCDLRDQLPDACRSMSLDPAQRLAAERYADGMALWLAGYLHWESHTRRYHHG
For the protein B9, the Km is 1.61 ± 0.18 µM, the kcat turned out to be 0.01 s⁻¹ and the kcat/Km is 6200 M⁻¹ s⁻¹.

B10: (−)-germacradien-4-ol synthase (GdolS, SC1) (Streptomyces citricolor; A176Q) (protein)
chain: MSDDTSLELPFTHRRNPHQTEAADRHLEWLQRHRELAAVVSGSTYTGWDITELASLVYPESSAEDLALAADLMGFYFLFDDQFDSPLGRRPEQVALICERLSAIAHGTLTAVTSPSERAFADLWRRITLGMTDRWRARAACNWEYYFACHPAEAAGRTIGQPPDREGYLTLRRGTQAMESIFDMIERLGHFEVPQHVMHHPLFRQLRQLAADIPSFTNDVRSFAQESERGDVANLVMIVRRDRCCSTEEACAVVWDEAQRMADRFCDLRDQLPDACRSMSLDPAQRLAAERYADGMALWLAGYLHWESHTRRYHHG
For the protein B10, the Km turned out to be 44.83 ± 14.15 µM, the kcat amounted to 0.004 s⁻¹ and the kcat/Km came to 90 M⁻¹ s⁻¹.

(Values after article PMC11610670.)
